B1: CheW coupling protein fused to a β-galactosidase truncation (ΔαCheW / ΔωCheW) (natural protein)
chain: MTGMSNVSKLAGEPSGQEFLVFTLGNEEYGIDILKVQEIRGYDQVTRIANTPAFIKGVTNLRGVIVPIVDLRVKFCEGDVEYDDNTVVIVLNLGQRVVGIVVDGVSDVLSLTAEQIRPAPEFAVTLSTEYLTGLGALGERMLILVNIEKLLNSEEMALLDIAASHVA
notes: CheW coupling protein, S. enterica sv; Typhimurium; the cheW gene was PCR-amplified and cloned (SphI/BamHI) into both pB2HΔα and pB2HΔω; One molecule for both fusions (Δα and Δω), since each protein stood in both positions of the two-hybrid system; also called Δα-cheW fusion; Δω-cheW fusion; source: two-hybrid fusion, co-expressed in E. coli MC1061 (pB2HΔα / pB2HΔω derivatives, 20 nM IPTG)
B2: RecA protein fused to a β-galactosidase truncation (ΔαRecA / ΔωRecA) (natural protein)
chain: MAIDENKQKALAAALGQIEKQFGKGSIMRLGEDRSMDVETISTGSLSLDIALGAGGLPMGRIVEIYGPESSGKTTLTLQVIAAAQREGKTCAFIDAEHALDPVYARKLGVDIDNLLCSQPDTGEQALEICDALARSGAVDVIVVDSVAALTPKAEIEGEIGDSHMGLAARMMSQAMRKLAGNLKQSNTLLIFINQIRMKIGVMFGNPETTTGGNALKFYASVRLDIRRIGAVKEGDNVVGSETRVKVVKNKIAAPFKQAEFQILYGEGINFYGELVDLGVKEKLIEKAGAWYSYNGEKIGQGKANATTWLKENPATAKEIEKRVRELLLSNQNATPDFAVDDSEGVAETNEDF
notes: RecA, S. enterica sv; Typhimurium; the recA gene was PCR-amplified and cloned (SphI/BamHI) into both pB2HΔα and pB2HΔω; One molecule for both fusions (Δα and Δω), since each protein stood in both positions of the two-hybrid system; also called Δα-recA fusion; Δω-recA fusion; source: two-hybrid fusion, co-expressed in E. coli MC1061 (pB2HΔα / pB2HΔω derivatives, 20 nM IPTG)

The target in experiment [1] is B2. The experiment can be described thus: two-hybrid; β-galactosidase Δα/Δω complementation (pB2HΔα/pB2HΔω) in E. coli MC1061; 37°C, samples 5 h after 20 nM IPTG; activity relative to the non-interaction control strain expressing ΔαAmyA and ΔωDnaE. To be noted: partners not purified.
For experiment [2], the target named is B1. The description is as above. To be noted: partners not purified.

Where only a bound is given, the exact number is not on record here.

In the case of B1, in experiment [1], the “relative β-galactosidase expression” value was > 7 relative to the non-interaction control strain.
As to B2, the “relative β-galactosidase expression” value in experiment [2] was > 7 relative to the non-interaction control strain.
